According to patent US20160272683A1 (Novo Nordisk, published 2016):
Numbered stars: 1 amine (or outer) side, 2 acyl side, 3 side chain; on linkers, the order of the positions; unused ones are H or OH. Side chains are listed from the residue outwards. Ends that are not written are not given here. * marks the point of attachment. C20 diacid = O=C(O)CCCCCCCCCCCCCCCCCCC(=O)*; C18 diacid = O=C(O)CCCCCCCCCCCCCCCCC(=O)*; C16 diacid = O=C(O)CCCCCCCCCCCCCCC(=O)*; γGlu = O=C(O)[C@H](CCC(=O)[*:2])N[*:1]; C14 diacid = O=C(O)CCCCCCCCCCCCC(=O)*; AEEA = NCCOCCOCC(=O)O

T1: human amylin 3(a) receptor (human calcitonin receptor co-expressed with RAMP-3) (human, UniProt P30988 25-474; O60896 24-148, limits assumed)
T1 sequence (looked up) 1: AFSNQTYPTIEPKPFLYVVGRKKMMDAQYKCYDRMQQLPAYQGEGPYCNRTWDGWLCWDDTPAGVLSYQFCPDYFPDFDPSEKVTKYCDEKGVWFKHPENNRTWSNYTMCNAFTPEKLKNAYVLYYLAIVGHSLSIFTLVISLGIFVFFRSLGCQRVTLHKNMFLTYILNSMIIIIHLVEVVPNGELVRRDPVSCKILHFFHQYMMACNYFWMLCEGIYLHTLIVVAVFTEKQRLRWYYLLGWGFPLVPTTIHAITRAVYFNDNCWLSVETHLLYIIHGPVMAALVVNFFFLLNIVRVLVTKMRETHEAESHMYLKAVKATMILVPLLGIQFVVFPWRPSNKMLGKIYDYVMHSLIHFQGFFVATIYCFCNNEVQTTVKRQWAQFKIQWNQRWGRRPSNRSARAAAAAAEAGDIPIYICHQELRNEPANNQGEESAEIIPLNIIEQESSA
T1 sequence (looked up) 2: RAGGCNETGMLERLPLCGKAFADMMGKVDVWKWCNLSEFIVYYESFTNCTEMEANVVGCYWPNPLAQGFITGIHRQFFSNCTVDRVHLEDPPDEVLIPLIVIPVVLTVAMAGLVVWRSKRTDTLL

T2: human calcitonin receptor (human, UniProt P30988 25-474)
T2 sequence (looked up): T1 sequence (looked up) 1

B1: [N-terminal(C18 diacid-gGlu), des1, 23Y, 30S, 31G]mimylin (peptide)
peptide: {C18 diacid-γGlu}-ASELSTAALGRLSAELHELATYPRTETGSGSP-NH2
SMILES: CC(C)C[C@H](NC(=O)[C@H](C)NC(=O)[C@H](C)NC(=O)[C@@H](NC(=O)[C@H](CO)NC(=O)[C@H](CC(C)C)NC(=O)[C@H](CCC(=O)O)NC(=O)[C@H](CO)NC(=O)[C@H](C)NC(=O)CC[C@H](NC(=O)CCCCCCCCCCCCCCCCC(=O)O)C(=O)O)[C@@H](C)O)C(=O)NCC(=O)N[C@@H](CCCNC(=N)N)C(=O)N[C@@H](CC(C)C)C(=O)N[C@@H](CO)C(=O)N[C@@H](C)C(=O)N[C@@H](CCC(=O)O)C(=O)N[C@@H](CC(C)C)C(=O)N[C@@H](Cc1c[nH]cn1)C(=O)N[C@@H](CCC(=O)O)C(=O)N[C@@H](CC(C)C)C(=O)N[C@@H](C)C(=O)N[C@H](C(=O)N[C@@H](Cc1ccc(O)cc1)C(=O)N1CCC[C@H]1C(=O)N[C@@H](CCCNC(=N)N)C(=O)N[C@H](C(=O)N[C@@H](CCC(=O)O)C(=O)N[C@H](C(=O)NCC(=O)N[C@@H](CO)C(=O)NCC(=O)N[C@@H](CO)C(=O)N1CCC[C@H]1C(N)=O)[C@@H](C)O)[C@@H](C)O)[C@@H](C)O
B2: [N-terminal(C20 diacid-gGlu), 1A, 23Y, 30S, 31G]mimylin (peptide)
peptide: {C20 diacid-γGlu}-AASELSTAALGRLSAELHELATYPRTETGSGSP-NH2
SMILES: CC(C)C[C@H](NC(=O)[C@H](C)NC(=O)[C@H](C)NC(=O)[C@@H](NC(=O)[C@H](CO)NC(=O)[C@H](CC(C)C)NC(=O)[C@H](CCC(=O)O)NC(=O)[C@H](CO)NC(=O)[C@H](C)NC(=O)[C@H](C)NC(=O)CC[C@H](NC(=O)CCCCCCCCCCCCCCCCCCC(=O)O)C(=O)O)[C@@H](C)O)C(=O)NCC(=O)N[C@@H](CCCNC(=N)N)C(=O)N[C@@H](CC(C)C)C(=O)N[C@@H](CO)C(=O)N[C@@H](C)C(=O)N[C@@H](CCC(=O)O)C(=O)N[C@@H](CC(C)C)C(=O)N[C@@H](Cc1c[nH]cn1)C(=O)N[C@@H](CCC(=O)O)C(=O)N[C@@H](CC(C)C)C(=O)N[C@@H](C)C(=O)N[C@H](C(=O)N[C@@H](Cc1ccc(O)cc1)C(=O)N1CCC[C@H]1C(=O)N[C@@H](CCCNC(=N)N)C(=O)N[C@H](C(=O)N[C@@H](CCC(=O)O)C(=O)N[C@H](C(=O)NCC(=O)N[C@@H](CO)C(=O)NCC(=O)N[C@@H](CO)C(=O)N1CCC[C@H]1C(N)=O)[C@@H](C)O)[C@@H](C)O)[C@@H](C)O
B3: [des1, 19K(C20 diacid-gGlu), 30S, 31G]mimylin (peptide)
peptide: ASELSTAALGRLSAELHK([γGlu-C20 diacid])LATLPRTETGSGSP-NH2
modifications: N-terminus assumed
SMILES: CC(C)C[C@H](NC(=O)[C@H](C)NC(=O)[C@H](C)NC(=O)[C@@H](NC(=O)[C@H](CO)NC(=O)[C@H](CC(C)C)NC(=O)[C@H](CCC(=O)O)NC(=O)[C@H](CO)NC(=O)[C@H](C)N)[C@@H](C)O)C(=O)NCC(=O)N[C@@H](CCCNC(=N)N)C(=O)N[C@@H](CC(C)C)C(=O)N[C@@H](CO)C(=O)N[C@@H](C)C(=O)N[C@@H](CCC(=O)O)C(=O)N[C@@H](CC(C)C)C(=O)N[C@@H](Cc1c[nH]cn1)C(=O)N[C@@H](CCCCNC(=O)CC[C@H](NC(=O)CCCCCCCCCCCCCCCCCCC(=O)O)C(=O)O)C(=O)N[C@@H](CC(C)C)C(=O)N[C@@H](C)C(=O)N[C@H](C(=O)N[C@@H](CC(C)C)C(=O)N1CCC[C@H]1C(=O)N[C@@H](CCCNC(=N)N)C(=O)N[C@H](C(=O)N[C@@H](CCC(=O)O)C(=O)N[C@H](C(=O)NCC(=O)N[C@@H](CO)C(=O)NCC(=O)N[C@@H](CO)C(=O)N1CCC[C@H]1C(N)=O)[C@@H](C)O)[C@@H](C)O)[C@@H](C)O
B4: [N-terminal(C20 diacid-gGlu), des1, 23Y, 30S, 31G]mimylin (peptide)
peptide: {C20 diacid-γGlu}-ASELSTAALGRLSAELHELATYPRTETGSGSP-NH2
SMILES: CC(C)C[C@H](NC(=O)[C@H](C)NC(=O)[C@H](C)NC(=O)[C@@H](NC(=O)[C@H](CO)NC(=O)[C@H](CC(C)C)NC(=O)[C@H](CCC(=O)O)NC(=O)[C@H](CO)NC(=O)[C@H](C)NC(=O)CC[C@H](NC(=O)CCCCCCCCCCCCCCCCCCC(=O)O)C(=O)O)[C@@H](C)O)C(=O)NCC(=O)N[C@@H](CCCNC(=N)N)C(=O)N[C@@H](CC(C)C)C(=O)N[C@@H](CO)C(=O)N[C@@H](C)C(=O)N[C@@H](CCC(=O)O)C(=O)N[C@@H](CC(C)C)C(=O)N[C@@H](Cc1c[nH]cn1)C(=O)N[C@@H](CCC(=O)O)C(=O)N[C@@H](CC(C)C)C(=O)N[C@@H](C)C(=O)N[C@H](C(=O)N[C@@H](Cc1ccc(O)cc1)C(=O)N1CCC[C@H]1C(=O)N[C@@H](CCCNC(=N)N)C(=O)N[C@H](C(=O)N[C@@H](CCC(=O)O)C(=O)N[C@H](C(=O)NCC(=O)N[C@@H](CO)C(=O)NCC(=O)N[C@@H](CO)C(=O)N1CCC[C@H]1C(N)=O)[C@@H](C)O)[C@@H](C)O)[C@@H](C)O
B5: [des1, 16K(C20 diacid-gGlu), 30S, 31G]mimylin (peptide)
peptide: ASELSTAALGRLSAK([γGlu-C20 diacid])LHELATLPRTETGSGSP-NH2
modifications: N-terminus assumed
SMILES: CC(C)C[C@H](NC(=O)[C@H](C)NC(=O)[C@H](C)NC(=O)[C@@H](NC(=O)[C@H](CO)NC(=O)[C@H](CC(C)C)NC(=O)[C@H](CCC(=O)O)NC(=O)[C@H](CO)NC(=O)[C@H](C)N)[C@@H](C)O)C(=O)NCC(=O)N[C@@H](CCCNC(=N)N)C(=O)N[C@@H](CC(C)C)C(=O)N[C@@H](CO)C(=O)N[C@@H](C)C(=O)N[C@@H](CCCCNC(=O)CC[C@H](NC(=O)CCCCCCCCCCCCCCCCCCC(=O)O)C(=O)O)C(=O)N[C@@H](CC(C)C)C(=O)N[C@@H](Cc1c[nH]cn1)C(=O)N[C@@H](CCC(=O)O)C(=O)N[C@@H](CC(C)C)C(=O)N[C@@H](C)C(=O)N[C@H](C(=O)N[C@@H](CC(C)C)C(=O)N1CCC[C@H]1C(=O)N[C@@H](CCCNC(=N)N)C(=O)N[C@H](C(=O)N[C@@H](CCC(=O)O)C(=O)N[C@H](C(=O)NCC(=O)N[C@@H](CO)C(=O)NCC(=O)N[C@@H](CO)C(=O)N1CCC[C@H]1C(N)=O)[C@@H](C)O)[C@@H](C)O)[C@@H](C)O
B6: [des1, 4K(C20 diacid-gGlu), 30S, 31G]mimylin (peptide)
peptide: ASK([γGlu-C20 diacid])LSTAALGRLSAELHELATLPRTETGSGSP-NH2
modifications: N-terminus assumed
SMILES: CC(C)C[C@H](NC(=O)[C@H](C)NC(=O)[C@H](C)NC(=O)[C@@H](NC(=O)[C@H](CO)NC(=O)[C@H](CC(C)C)NC(=O)[C@H](CCCCNC(=O)CC[C@H](NC(=O)CCCCCCCCCCCCCCCCCCC(=O)O)C(=O)O)NC(=O)[C@H](CO)NC(=O)[C@H](C)N)[C@@H](C)O)C(=O)NCC(=O)N[C@@H](CCCNC(=N)N)C(=O)N[C@@H](CC(C)C)C(=O)N[C@@H](CO)C(=O)N[C@@H](C)C(=O)N[C@@H](CCC(=O)O)C(=O)N[C@@H](CC(C)C)C(=O)N[C@@H](Cc1c[nH]cn1)C(=O)N[C@@H](CCC(=O)O)C(=O)N[C@@H](CC(C)C)C(=O)N[C@@H](C)C(=O)N[C@H](C(=O)N[C@@H](CC(C)C)C(=O)N1CCC[C@H]1C(=O)N[C@@H](CCCNC(=N)N)C(=O)N[C@H](C(=O)N[C@@H](CCC(=O)O)C(=O)N[C@H](C(=O)NCC(=O)N[C@@H](CO)C(=O)NCC(=O)N[C@@H](CO)C(=O)N1CCC[C@H]1C(N)=O)[C@@H](C)O)[C@@H](C)O)[C@@H](C)O

Tests used:
[1] = target: T1, human amylin 3(a) receptor (human …); assay: cell-based or functional assay
[2] = target: T2, human calcitonin receptor; assay: cell-based or functional assay

Binder | hAmylin-R funct. EC50 (pM) [1] [pM] | hCTR funct. EC50 (pM) [2] [pM]
{C14 diacid}-ASELSTAALGRLSAELHELATLPRTETGSGSP-NH2 [[N-terminal(C14 diacid), des1, 30S, 31G]mimylin] | 7 | 5
{C14 diacid}-EASELSTAALGRLSAELHELATLPRTETGPESP-NH2 [[N-terminal(C14 diacid)]mimylin] | 6 | 2
{C14 diacid-γGlu-γGlu-AEEA-AEEA-AEEA-AEEA}-EASELSTAALGRLSAELHELATLPRTETGPESP-NH2 [[N-terminal(C14 diacid-2xgGlu-4xOEG)]mimylin] | 27 | 7
B1 | 10 | 10
{C14 diacid-γGlu}-ASELSTAALGRLSAELHELATLPRTETGSGSP-NH2 [[N-terminal(C14 diacid-gGlu), des1, 30S, 31G]mimylin] | 6 | 4
B2 | 20 | 22
{C16 diacid}-ASELSTAALGRLSAELHELATLPRTETGSGSP-NH2 [[N-terminal(C16 diacid), des1, 30S, 31G]mimylin] | 10 | 10
B3 | 28 | 19
B4 | 22 | 23
B5 | 22 | 31
B6 | 39 | 34
